Data as given in doi:10.1101/2022.08.14.503930 (bioRxiv, 2022).

Molecular target: T1, GFP-TBK1 (UniProt Q9UHD2 1-729)
T1 construct: TBK1, insect codon optimized gene from GenScript; source: Sf9, purified (Glutathione Sepharose, TEV cleavage, Superdex 200)
Assay: microscopy-based bead protein-protein interaction assay; GST-4xUb (10 uM) on Glutathione Sepharose beads with OPTN S177D S473D 500 nM, GFP-TBK1 500 nM and PI3Kc1-mCh 200 nM; 25 mM TRIS-Cl pH 7.5, 150 mM NaCl, 1 mM DTT; 30 min, confocal
Conditions: both partners purified

binding result: binds
B1: OPTN S2D (S177D, S473D) (natural protein, UniProt Q96CV9 1-577, looked up)
chain: MSHQPLSCLTEKEDSPSESTGNGPPHLAHPNLDTFTPEELLQQMKELLTENHQLKEAMKLNNQAMKGRFEELSAWTEKQKEERQFFEIQSKEAKERLMALSHENEKLKEELGKLKGKSERSSEDPTDDSRLPRAEAEQEKDQLRTQVVRLQAEKADLLGIVSELQLKLNSSGSSEDDFVEIRMAEGEAEGSVKEIKHSPGPTRTVSTGTALSKYRSRSADGAKNYFEHEELTVSQLLLCLREGNQKVERLEVALKEAKERVSDFEKKTSNRSEIETQTEGSTEKENDEEKGPETVGSEVEALNLQVTSLFKELQEAHTKLSEAELMKKRLQEKCQALERKNSAIPSELNEKQELVYTNKKLELQVESMLSEIKMEQAKTEDEKSKLTVLQMTHNKLLQEHNNALKTIEELTRKESEKVDRAVLKELSEKLELAEKALASKQLQMDEMKQTIAKQEEDLETMTILRAQMEVYCDDFHAERAAREKIHEEKEQLALQLAVLLKENDAFEDGGRQSLMEMQSRHGARTSDSDQQAYLVQRGAEDRDWRQQRNIPIHSCPKCGEVLPDIDTLQIHVMDCII
notes: optineurin (OPTN), TBK1 phospho-mimetic form; pGST2-GST-TEV-OPTN(S177D S473D), derived from vectors of Chang et al., 2021; also called OPTN S177D S473D; phosphomimetic OPTN S2D; source: E. coli Rosetta pLySS, purified (Glutathione Sepharose, TEV cleavage, Superdex 200); not shown: GST, N-terminal, cleaved
